B1: Ty-BatCoV-HKU4 spike receptor binding domain (residues E372-Y611) (domain or fragment)
chain: EASATGTFIEQPNATECDFSPMLTGVAPQVYNFKRLVFSNCNYNLTKLLSLFAVDEFSCNGISPDSIARGCYSTLTVDYFAYPLSMKSYIRPGSAGNIPLYNYKQSFANPTCRVMASVLANVTITKPHAYGYISKCSRLTGANQDVETPLYINPGEYSICRDFSPGGFSEDGQVFKRTLTQFEGGGLLIGVGTRVPMTDNLQMSFIISVQYGTGTDSVCPMLDLGDSLTITNRLGKCVDY

Columns and labels:
[1] = target: human dipeptidyl peptidase 4 ectodomain (hDPP4, residues 39-766) (human) (UniProt P27487); test: SPR; BIAcore T200, 25 °C; […]; 1:1 Langmuir binding model
[2] = target: T1, human dipeptidyl peptidase 4 ectodomain (hDPP4, residues 39-766) (human, UniProt P27487 39-766); test: as above; conditions: both partners purified
T1 construct: also called human DPP4
T1 sequence (P27487 39-766): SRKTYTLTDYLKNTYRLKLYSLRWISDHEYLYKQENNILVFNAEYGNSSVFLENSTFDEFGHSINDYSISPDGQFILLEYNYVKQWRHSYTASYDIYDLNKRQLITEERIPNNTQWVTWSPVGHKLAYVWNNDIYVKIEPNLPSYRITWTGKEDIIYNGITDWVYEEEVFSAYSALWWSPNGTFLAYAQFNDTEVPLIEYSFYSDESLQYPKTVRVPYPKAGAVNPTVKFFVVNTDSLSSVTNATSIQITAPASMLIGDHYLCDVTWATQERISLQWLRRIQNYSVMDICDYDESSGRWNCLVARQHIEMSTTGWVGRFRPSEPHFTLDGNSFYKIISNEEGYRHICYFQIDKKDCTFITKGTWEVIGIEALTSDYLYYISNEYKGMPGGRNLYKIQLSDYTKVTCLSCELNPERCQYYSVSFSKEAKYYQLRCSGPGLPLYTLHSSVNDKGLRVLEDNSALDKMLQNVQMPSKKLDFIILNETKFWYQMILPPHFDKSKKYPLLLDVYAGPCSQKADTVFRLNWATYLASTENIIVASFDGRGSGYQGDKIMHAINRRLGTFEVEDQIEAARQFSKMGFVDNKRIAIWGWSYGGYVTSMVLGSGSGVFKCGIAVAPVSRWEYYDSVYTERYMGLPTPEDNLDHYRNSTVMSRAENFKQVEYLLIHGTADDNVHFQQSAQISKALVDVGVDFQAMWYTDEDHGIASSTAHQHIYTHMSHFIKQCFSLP

human dipeptidyl peptidase 4 ectodomain (hDPP4, residues 39-766) (human), sequence (P27487 39-766): as above

Molecule | koff [1] [s⁻¹] | kon [1] [M⁻¹ s⁻¹] | koff [2] [s⁻¹] | kon [2] [M⁻¹ s⁻¹]
MjHKU4r-CoV-1 spike receptor binding domain (residues 375-614) (domain or fragment) | 0.00368 | 17000 | – | –
B1 | – | – | 0.00684 | 1070

— publication PMC11578449 (PLOS Pathogens, 2024)
